Measurements as given in the supplement of paper PMC6757056.
± gives the standard deviation of the averaged measurements.

B1: library; a variant is named by its letters at N, in order (parent)
chain: GCUGUCACCGGUGCUUGGUACGUUAUAUUCAGCCGGUCUGAUGAGUCUNNNNNNAGACGAAACAGC

Assays:
(6R,S)-folinic acid [1] = variants of: B1; assay: FACS-Seq fitted mean relative fluorescence mCherry/BFP without ligand (log10 relative fluorescence); HEK293T overexpressing SLC46A1; higher = higher reporter protein expression; conditions: without (6R,S)-folinic acid; ligand present: no
Method in brief: (§1)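 Genomic DNA from 6 mCherry/BFP sort bins was PCR-amplified, barcoded and sequenced on MiSeq. The sorted cells were enriched HEK293T libraries, lentivirally transduced with a ribozyme-switch mCherry reporter and an EF1α-BFP marker, incubated with or without ligand for 48 h. Fluorescence derives from a normal fit to the bin counts. The fit was on log10(mCherry/BFP), and means were scaled to five spiked-in control ribozymes.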

(6R,S)-folinic acid [2] = variants of: B1; assay: normalized RNA/DNA level without ligand (relative to sTRSVctl = 100) (log10 (% of sTRSVctl)); HEK293T overexpressing SLC46A1; higher = less ribozyme self-cleavage, higher mRNA level; conditions: without (6R,S)-folinic acid; ligand present: no
Method in brief: (§2)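 HEK293T cells were transfected with library plasmids carrying ribozyme switches linked to an mCherry reporter, or an eGFP reporter in some ligand experiments, at 4 µg per well of a 6-well plate, with any ligand added 1 h beforehand. After 72 h, total RNA was extracted with EDTA, reverse-transcribed, amplified, barcoded and sequenced. RNA level was defined as RNA reads over DNA reads, normalized to a spiked-in non-cleaving sequence or to the top-ranked sequences. That value was multiplied by 100 and converted to log10, the top set was 25 sequences, and only sequences with ≥100 DNA reads were retained.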

(6R,S)-folinic acid [3] = variants of: B1; assay: FACS-Seq fitted mean relative fluorescence mCherry/BFP with ligand (log10 relative fluorescence); HEK293T overexpressing SLC46A1; ligand concentration (+) FACS-Seq: 6 mM; higher = higher reporter protein expression; conditions: with (6R,S)-folinic acid; ligand present: yes
Method in brief: as §1

(6R,S)-folinic acid [4] = variants of: B1; assay: normalized RNA/DNA level with ligand (relative to sTRSVctl = 100) (log10 (% of sTRSVctl)); HEK293T overexpressing SLC46A1; ligand concentration (+) RNA-Seq: 6 mM; higher = less ribozyme self-cleavage, higher mRNA level; conditions: with (6R,S)-folinic acid; ligand present: yes
Method in brief: as §2

Variant | FACS-Seq fitted mean (log10) ((6R,S)-folinic acid [1]) | normalized RNA/DNA level without ligand (log10) ((6R,S)-folinic acid [2]) | FACS-Seq fitted mean (log10) ((6R,S)-folinic acid [3]) | normalized RNA/DNA level with ligand (log10) ((6R,S)-folinic acid [4])
GGUGCA | 0.256 ± 0.027 | 2.037 ± 0.017 | 0.204 ± 0.17 | 2.04 ± 0.032
GGUGCU | -0.205 ± 0.13 | 2.005 ± 0.017 | 0.149 ± 0.25 | 2.01 ± 0.046
CUAAAG | -0.0676 ± 0.063 | 1.913 ± 0.0067 | -0.0285 ± 0.2 | 2 ± 0.035
CUAAAA | 0.151 ± 0.029 | 1.98 ± 0.021 | 0.19 ± 0.12 | 1.98 ± 0.048
GGUUGC | 0.472 ± 0.12 | 1.932 ± 0.0076 | 0.388 ± 0.059 | 1.9808 ± 0.0018
GGUUGA | 0.168 ± 0.043 | 2.083 ± 0.0081 | -0.309 ± 0.06 | 2.07 ± 0.031
GGUUAU | 0.612 ± 0.021 | 1.989 ± 0.019 | 0.481 ± 0.077 | 1.98 ± 0.023
GGUUAG | 0.215 ± 0.017 | 1.982 ± 0.016 | 0.245 ± 0.13 | 2 ± 0.035
GGUUUG | 0.0685 ± 0.084 | 2.024 ± 0.0089 | -0.1121 ± 0.00036 | 2.06 ± 0.025
GGUGAC | 0.359 ± 0.087 | 2.027 ± 0.008 | 0.217 ± 0.074 | 2.01 ± 0.037
GGUGAU | 0.294 ± 0.15 | 2.015 ± 0.013 | 0.491 ± 0.23 | 2.028 ± 0.018
UGUGAG | 0.269 ± 0.082 | 1.6 ± 0.0064 | 0.649 ± 0.03 | 1.906 ± 0.0071
UGUGAA | 0.186 ± 0.034 | 1.899 ± 0.015 | 0.243 ± 0.25 | 1.984 ± 0.012
UGUAGC | 0.389 ± 0.16 | 1.907 ± 0.01 | 0.362 ± 0.049 | 1.988 ± 0.016
UGUAGG | 0.342 ± 0.083 | 1.61 ± 0.018 | 0.855 ± 0.1 | 1.92 ± 0.033
CGUUGC | 0.557 ± 0.049 | 2.02 ± 0.025 | 0.358 ± 0.33 | 2.02 ± 0.047
UGUACU | 0.366 ± 0.027 | 1.99 ± 0.026 | 0.253 ± 0.17 | 2.021 ± 0.0023
CGGUGU | 0.22 ± 0.22 | 1.993 ± 0.015 | 0.278 ± 0.12 | 1.98 ± 0.046

Variant | FACS-Seq fitted mean (log10) ((6R,S)-folinic acid [1]) | normalized RNA/DNA level without ligand (log10) ((6R,S)-folinic acid [2]) | FACS-Seq fitted mean (log10) ((6R,S)-folinic acid [3]) | normalized RNA/DNA level with ligand (log10) ((6R,S)-folinic acid [4])
AGUGAU | 0.213 ± 0.04 | 1.972 ± 0.016 | 0.178 ± 0.14 | 1.996 ± 0.0024
UUAGAA | 0.323 ± 0.038 | 1.913 ± 0.0022 | 0.278 ± 0.054 | 1.98 ± 0.038
UUAGAG | 0.029 ± 0.12 | 1.7074 ± 0.0017 | 0.476 ± 0.11 | 1.95 ± 0.045
GUAACC | 0.499 ± 0.17 | 2.059 ± 0.0095 | 0.419 ± 0.081 | 2.053 ± 0.017
AGGUUU | 0.323 ± 0.15 | 2.003 ± 0.012 | 0.561 ± 0.075 | 2.0283 ± 0.00022
AGGUUA | 0.33 ± 0.013 | 1.981 ± 0.0028 | 0.384 ± 0.056 | 1.98 ± 0.04
AGUAAA | 0.22 ± 0.14 | 1.954 ± 0.013 | 0.344 ± 0.14 | 1.98 ± 0.041
AUAAGU | 0.346 ± 0.17 | 1.88 ± 0.024 | 0.682 ± 0.15 | 2.01 ± 0.044
AUAAGC | 0.38 ± 0.1 | 2.003 ± 0.0058 | 0.792 ± 0.04 | 2.02 ± 0.042
AUAAGG | 0.0495 ± 0.016 | 1.882 ± 0.011 | 0.356 ± 0.25 | 1.99 ± 0.012
GUACGG | 0.245 ± 0.024 | 1.953 ± 0.0076 | 0.584 ± 0.19 | 2.03 ± 0.032
GUACGA | 0.269 ± 0.031 | 2.0027 ± 0.0013 | 0.139 ± 0.31 | 2.04 ± 0.051
AUAAAC | -0.0226 ± 0.13 | 1.998 ± 0.0043 | -0.127 ± 0.3 | 1.99 ± 0.026
AUAAAU | 0.45 ± 0.08 | 1.951 ± 0.017 | 0.359 ± 0.082 | 2.028 ± 0.007
AUAAAG | 0.418 ± 0.03 | 1.901 ± 0.0089 | 0.417 ± 0.016 | 2 ± 0.036
AUAAAA | 0.343 ± 0.0039 | 1.9901 ± 0.0019 | 0.263 ± 0.23 | 1.994 ± 0.016
GUAGAA | 0.384 ± 0.0046 | 1.954 ± 0.0058 | 0.522 ± 0.23 | 1.995 ± 0.0074
GUAGAG | 0.201 ± 0.057 | 1.759 ± 0.015 | 0.87 ± 0.12 | 1.98 ± 0.035
